Patent publication US10801046B2, “Methods and materials for biosynthesizing multifunctional, multivariate molecules via carbon chain modification” (INVISTA NORTH AMERICA S.A.R.L., priority 2016, dated 2020)

How the values were obtained:
[1] = Carboxylate reductase activity, heptanedioate to 7-oxoheptanoate, NADPH consumption at 340 nm; format: biochemical; conditions: enhanced by gene product of sfp, 2 mM substrate, 20 min, against empty vector control, FIG. 43
Experimental: A sequence encoding a HIS-tag was added to the genes from Segniliparus rugosus and Segniliparus rotundus that encode the carboxylate reductases of SEQ ID NOs: 31 (GenBank Accession No. EFV11917.1) and 38 (GenBank Accession No. ADG98140.1), respectively, such that N-terminal HIS tagged carboxylate reductases could be produced. Each of the modified genes was cloned into a pET Duet expression vector along with a sfp gene encoding a HIS-tagged phosphopantetheine transferase from Bacillus subtilis, both under the T7 promoter. Each expression vector was transformed into a BL21[DE3] E. coli host and the resulting recombinant E. coli strains were cultivated at 37° C. in a 250 mL shake flask culture containing 50 mL LB media and antibiotic selection pressure, with shaking at 230 rpm. Each culture was induced overnight at 37° C. using an auto-induction media.
The pellet from each induced shake flask culture was harvested via centrifugation. Each pellet was resuspended and lysed via sonication, and the cell debris was separated from the supernatant via centrifugation. […]
Enzyme activity assays (i.e., from heptanedioate to 7-oxoheptanoate) were performed in triplicate in a buffer composed of a final concentration of 50 mM HEPES buffer (pH=7.5), 2 mM heptanedioate, 10 mM MgCl2, 1 mM ATP, and 1 mM NADPH. […] The consumption of NADPH was monitored by absorbance at 340 nm.

[2] = Carboxylate reductase activity, 7-hydroxyheptanoate to 7-hydroxyheptanal, NADPH consumption at 340 nm; format: biochemical; conditions: enhanced by gene product of sfp, 20 min, against empty vector control, FIG. 44
Experimental: A sequence encoding a His-tag was added to the genes from Mycobacterium marinum, Mycobacterium smegmatis, Segniliparus rugosus, Mycobacterium smegmatis, Mycobacterium massiliense, and Segniliparus rotundus that encode the carboxylate reductases of SEQ ID NOs: 25 (GenBank Accession No. ACC40567.1), 27 (GenBank Accession No. ABK75684.1), 29 (GenBank Accession No. ABK71854.1), 31 (GenBank Accession No. EFV11917.1), 37 (GenBank Accession No. EIV11143.1), and 38 (GenBank Accession No. ADG98140.1) such that N-terminal HIS tagged carboxylate reductases could be produced. Each of the modified genes was cloned into a pET Duet expression vector alongside a sfp gene encoding a His-tagged phosphopantetheine transferase from Bacillus subtilis, both under control of the T7 promoter.
Each expression vector was transformed into a BL21[DE3] E. coli host and the resulting recombinant E. coli strains were cultivated at 37° C. in a 250 mL shake flask culture containing 50 mL LB media and antibiotic selection pressure, with shaking at 230 rpm. Each culture was induced overnight at 37° C. using an auto-induction media.
The pellet from each induced shake flask culture was harvested via centrifugation. Each pellet was resuspended and lysed via sonication. The cell debris was separated from the supernatant via centrifugation. The carboxylate reductases and phosphopantetheine transferase were purified from the supernatant using Ni-affinity chromatography, diluted 10-fold into 50 mM HEPES buffer (pH=7.5) and concentrated via ultrafiltration.
Enzyme activity (i.e., 7-hydroxyheptanoate to 7-hydroxyheptanal) assays were performed in triplicate in a buffer composed of a final concentration of 50 mM HEPES buffer (pH=7.5), 2 mM […], 10 mM MgCl2, 1 mM ATP, and 1 mM NADPH. Each enzyme activity assay reaction was initiated by adding purified carboxylate reductase and phosphopantetheine transferase or the empty vector control to the assay buffer containing the 7-hydroxyheptanoate and then incubated at room temperature for 20 min. The consumption of NADPH was monitored by absorbance at 340 nm.

acceptance of heptanedioate as substrate, forming 7-oxoheptanoate [1]: accepted heptanedioate as substrate
B1: SEQ ID NO: 31: Segniliparus rugosus carboxylate reductase (protein)
chain: MGDGEERAKRFFQRIGELSATDPQFAAAAPDPAVVEAVSDPSLSFTRYLDTLMRGYAERPALAHRVGAGYETISYGELWARVGAIAAAWQADGLAPGDFVATVGFTSPDYVAVDLAAARSGLVSVPLQAGASLAQLVGILEETEPKVLAASASSLEGAVACALAAPSVQRLVVFDLRGPDASESAADERRGALADAEEQLARAGRAVVVETLADLAARGEALPEAPLFEPAEGEDPLALLIYTSGSTGAPKGAMYSQRLVSQLWGRTPVVPGMPNISLHYMPLSHSYGRAVLAGALSAGGTAHFTANSDLSTLFEDIALARPTFLALVPRVCEMLFQESQRGQDVAELRERVLGGRLLVAVCGSAPLSPEMRAFMEEVLGFPLLDGYGSTEALGVMRNGIIQRPPVIDYKLVDVPELGYRTTDKPYPRGELCIRSTSLISGYYKRPEITAEVFDAQGYYKTGDVMAEIAPDHLVYVDRSKNVLKLSQGEFVAVAKLEAAYGTSPYVKQIFVYGNSERSFLLAVVVPNAEVLGARDQEEAKPLIAASLQKIAKEAGLQSYEVPRDFLIETEPFTTQNGLLSEVGKLLRPKLKARYGEALEARYDEIAHGQADELRALRDGAGQRPVVETVVRAAVAISGSEGAEVGPEANFADLGGDSLSALSLANLLHDVFEVEVPVRIIIGPTASLAGIAKHIEAERAGASAPTAASVHGAGATRIRASELTLEKFLPEDLLAAAKGLPAADQVRTVLLTGANGWLGRFLALEQLERLARSGQDGGKLICLVRGKDAAAARRRIEETLGTDPALAARFAELAEGRLEVVPGDVGEPKFGLDDAAWDRLAEEVDVIVHPAALVNHVLPYHQLFGPNVVGTAEIIRLAITAKRKPVTYLSTVAVAAGVEPSSFEEDGDIRAVVPERPLGDGYANGYGNSKWAGEVLLREAHELVGLPVAVFRSDMILAHTRYTGQLNVPDQFTRLVLSLLATGIAPKSFYQQGAAGERQRAHYDGIPVDFTAEAITTLGAEPSWFDGGAGFRSFDVFNPHHDGVGLDEFVDWLIEAGHPISRIDDHKEWFARFETAVRGLPEAQRQHSLLPLLRAYSFPHPPVDGSVYPTGKFQGAVKAAQVGSDHDVPHLGKALIVKYADDLKALGLL
modifications: Segniliparus rugosus ATCC BAA-974
notes: Segniliparus rugosus carboxylate reductase
acceptance of 7-hydroxyheptanoate as substrate, forming 7-hydroxyheptanal [2]: accepted 7-hydroxyheptanoate as substrate
